To fix the notation:
B1: Zinc finger MYM-type protein 3, residues 589 to 668; numbered along this chain, Q14202 (parent)
chain: LSCHYCHSLFSGKPEVLDWQDQVFQFCCRDCCEDFKRLRGVVSQCEHCRQEKLLHEKLRFSGVEKSFCSEGCVLLYKQDF

± gives the uncertainty stated by the source.

The variants in this data set derive from B1. Put plainly: abundance fitness (aPCA) (normalised: wild type 0, dead -1); higher = more abundant; growth selection in yeast, the domain comes from the species named. Conditions: Homo sapiens.
On to LSCHYCHSLFSGKPEVLDWQDQVFQFCCRDCCEDFKRLRGVVSQCEHCRQEKLLHEKLRFSGVEKSFCSEGPVLLYKQDF, for which the abundance fitness was -0.725 ± 0.39.
For LSCHYCHSLFSGKPEVLDWQDQVFQFCCRDCCEDFKRLRGVVSQCEHCYQEKLLHEKLRFSGVEKSFCSEGCVLLYKQDF, the abundance fitness was -0.618 ± 0.39.
As for LSCHYCHSLFSGKPEVLMWQDQVFQFCCRDCCEDFKRLRGVVSQCEHCRQEKLLHEKLRFSGVEKSFCSEGCVLLYKQDF, the figure is 0.175 ± 0.051; as for LSCHYCHSLFSGKPEVLDWQDQVFQFCCRDCCEDFKQLRGVVSQCEHCRQEKLLHEKLRFSGVEKSFCSEGCVLLYKQDF, 0.254 ± 0.12; as for LSCHYCHSLFSGKPEVLDWQDQVFQFCCRDCCEDFKRLRGVVSQCEHCRQEKQLHEKLRFSGVEKSFCSEGCVLLYKQDF, -0.255 ± 0.22.
As for LSCHYCHSRFSGKPEVLDWQDQVFQFCCRDCCEDFKRLRGVVSQCEHCRQEKLLHEKLRFSGVEKSFCSEGCVLLYKQDF, the figure is -0.012 ± 0.04.
As for LSCHYCHSLFSGKPEVLDWQDQVFQFCCRDCCEDFKRLRGVVSQCEHCRQEKLLHEKLRCSGVEKSFCSEGCVLLYKQDF, the figure is -0.503 ± 0.29; as for LSCHYCHSLFSGKPEVLDWQDQVFQFCCRDCCEDFKRLRGVVSQCEHCRQEKLLHEKLRFSGVEKSFCSEGCELLYKQDF, -0.027 ± 0.17.
Regarding LSCHYCHSLFSGKQEVLDWQDQVFQFCCRDCCEDFKRLRGVVSQCEHCRQEKLLHEKLRFSGVEKSFCSEGCVLLYKQDF, the abundance fitness was -0.39 ± 0.071.
As for LSCHYCHSLFSGKPEVLDWQDQVFQFCCRDCCEDTKRLRGVVSQCEHCRQEKLLHEKLRFSGVEKSFCSEGCVLLYKQDF, the figure is -0.607 ± 0.077.
As for LSCHYCHSLFSGKPEVLDWQDQVFQFCCRDCCEDEKRLRGVVSQCEHCRQEKLLHEKLRFSGVEKSFCSEGCVLLYKQDF, the figure is -0.157 ± 0.045; as for LSCHYCHSLFSGKPEVLDWQDQVFQFCCRDCCEDWKRLRGVVSQCEHCRQEKLLHEKLRFSGVEKSFCSEGCVLLYKQDF, -0.118 ± 0.045.
As for LSCHYCHSLFSGKPEVCDWQDQVFQFCCRDCCEDFKRLRGVVSQCEHCRQEKLLHEKLRFSGVEKSFCSEGCVLLYKQDF, the figure is -0.077 ± 0.071; as for LSCHYCHSLFSGKPEVTDWQDQVFQFCCRDCCEDFKRLRGVVSQCEHCRQEKLLHEKLRFSGVEKSFCSEGCVLLYKQDF, -0.06 ± 0.05; as for LSCHYCHSLFSGKPEVLDWQDQVFQFCCRDCCEDFKRLRGVVSQCEHCRQEKLLHEKLRFSGVEKSFCSLGCVLLYKQDF, -0.055 ± 0.15.
On to LSCHYCHSLFSGKPEVLDWQDQVFQFCDRDCCEDFKRLRGVVSQCEHCRQEKLLHEKLRFSGVEKSFCSEGCVLLYKQDF, for which the abundance fitness was determined as 0.041 ± 0.062.
Take LSCHYRHSLFSGKPEVLDWQDQVFQFCCRDCCEDFKRLRGVVSQCEHCRQEKLLHEKLRFSGVEKSFCSEGCVLLYKQDF: the abundance fitness is -0.919 ± 0.072.
LSCHYCHSLFSGKPEVLDWQDQVFQFCCRDCCADFKRLRGVVSQCEHCRQEKLLHEKLRFSGVEKSFCSEGCVLLYKQDF: the abundance fitness was -0.037 ± 0.04.
Turning to LSCHYCHSLFSGKPEVLDWQDQVFIFCCRDCCEDFKRLRGVVSQCEHCRQEKLLHEKLRFSGVEKSFCSEGCVLLYKQDF, the abundance fitness was -0.084 ± 0.067.
As for LSCHYCHSLFSTKPEVLDWQDQVFQFCCRDCCEDFKRLRGVVSQCEHCRQEKLLHEKLRFSGVEKSFCSEGCVLLYKQDF, the figure is 0.039 ± 0.044.
Regarding LSCHYCHELFSGKPEVLDWQDQVFQFCCRDCCEDFKRLRGVVSQCEHCRQEKLLHEKLRFSGVEKSFCSEGCVLLYKQDF, the abundance fitness was 0.154 ± 0.046.
Take LSCHYCHSLFSGKPEVLDWQDQVFQFCCRDCCEDFKRLRGVVSQCEHCRQEKLLHEKHRFSGVEKSFCSEGCVLLYKQDF: the abundance fitness came out at 0.542 ± 0.28.
For LSCHYCHSLFSGKPEVLDWMDQVFQFCCRDCCEDFKRLRGVVSQCEHCRQEKLLHEKLRFSGVEKSFCSEGCVLLYKQDF, the abundance fitness turned out to be 0.394 ± 0.053.
As for LSCHYCHSLFSGKPEVLDWWDQVFQFCCRDCCEDFKRLRGVVSQCEHCRQEKLLHEKLRFSGVEKSFCSEGCVLLYKQDF, the abundance fitness worked out at 0.014 ± 0.053.
As for LSCHYCHSLFSGKPEVLDWQDQVFQFCCRDCCEWFKRLRGVVSQCEHCRQEKLLHEKLRFSGVEKSFCSEGCVLLYKQDF, the figure is -0.1 ± 0.054.
Consider LSCHYCHSLFSGKPEVLDWQDQVFQFCCRDCCEDFKRLRGVVSQCEHCRQEKLLHEKLNFSGVEKSFCSEGCVLLYKQDF, for which the abundance fitness stood at 0.609 ± 0.27.
LSCHYCHSLFSGKPEVLDWQDQVFQFCCRDCCEDFKRLRGVVSQCEHCRQEKLLHEKLRFSGVEKSFESEGCVLLYKQDF: the abundance fitness is -0.911 ± 0.26.
With LSCHYCHSLFSGKPEVLDWQDQVFQFCCRDCCEDFKRLRGVVSQCEHCRQEKLLHEKLRFSGVEKSFCSEGCVLLYKQWF, the abundance fitness was -0.378 ± 0.19.
As for LSCHYCHSLFSGKPEVLDWQDQVFQFCCRDCCEDFKRLRGVVSQCEHCRQEKLLHEKLRFSGVEKSFCSEGCVLLYKQVF, the figure is -0.531 ± 0.23; as for LSCHYCHSLFSGKPEVLDWQDQDFQFCCRDCCEDFKRLRGVVSQCEHCRQEKLLHEKLRFSGVEKSFCSEGCVLLYKQDF, -0.085 ± 0.05; as for LSCHYCHSLFSGKPEVLDWQDQRFQFCCRDCCEDFKRLRGVVSQCEHCRQEKLLHEKLRFSGVEKSFCSEGCVLLYKQDF, 0.294 ± 0.039.
As for LSCHYCHSLFSGKPEVLDWQDQYFQFCCRDCCEDFKRLRGVVSQCEHCRQEKLLHEKLRFSGVEKSFCSEGCVLLYKQDF, the figure is -0.164 ± 0.073; as for LSCHYCHSLFRGKPEVLDWQDQVFQFCCRDCCEDFKRLRGVVSQCEHCRQEKLLHEKLRFSGVEKSFCSEGCVLLYKQDF, -0.406 ± 0.044; as for LSCHYCHSLFGGKPEVLDWQDQVFQFCCRDCCEDFKRLRGVVSQCEHCRQEKLLHEKLRFSGVEKSFCSEGCVLLYKQDF, -0.169 ± 0.041.

The values are drawn from the Human Domainome abundance scans (Beltran et al. 2025).
